From PMC9352680, “A comprehensive thermodynamic model for RNA binding by the Saccharomyces cerevisiae Pumilio protein PUF4”

T1: PUF4 RNA-binding domain (Saccharomyces cerevisiae, UniProt P25339 537-888)
T1 sequence: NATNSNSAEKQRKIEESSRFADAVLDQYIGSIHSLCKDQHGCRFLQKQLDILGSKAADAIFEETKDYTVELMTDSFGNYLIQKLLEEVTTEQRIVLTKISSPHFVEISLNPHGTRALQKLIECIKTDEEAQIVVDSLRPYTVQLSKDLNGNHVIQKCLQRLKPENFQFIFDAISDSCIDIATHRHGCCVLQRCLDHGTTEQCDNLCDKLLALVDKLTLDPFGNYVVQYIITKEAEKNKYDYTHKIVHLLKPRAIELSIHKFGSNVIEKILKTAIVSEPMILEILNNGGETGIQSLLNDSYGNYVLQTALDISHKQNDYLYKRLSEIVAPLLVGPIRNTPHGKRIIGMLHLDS

B1: Ic_S2_P5E.1_K5.1_C5.1_H5.1_A5.1_[T5C]_[T6A]_F5.1_[A10C]_T5.1 (ssRNA)
RNA: UUUGAUUAAUAUGAUAUCGUUCUUUCUUGUACAAUUCUUCUUUCUCGAUAUCAUAUUAAUCUUU
B2: Ic_S2_P5E.1_K5.1_C5.1_H5.1_A5.1_[T5C]_[A7G]_F5.1_[T9A]_[A10T]_T5.1 (ssRNA)
RNA: UUUGAUUAAUAUGAUAUCGUUCUUUCUUGUACUGUAUUUCUUUCUCGAUAUCAUAUUAAUCUUU
B3: Ic_S2_P5E.1_K5.1_C5.1_H5.1_A5.1_[T5C]_[T6C]_[A7G]_F5.1_[T8G]_[A10C]_T5.1 (ssRNA)
RNA: UUUGAUUAAUAUGAUAUCGUUCUUUCUUGUACCGGUCUUCUUUCUCGAUAUCAUAUUAAUCUUU
B4: Ic_S2_P5E.1_K5.1_C5.1_H5.1_A5.1_[A7C]_F5.1_[T8G]_[T9G]_[A10T]_T5.1 (ssRNA)
RNA: UUUGAUUAAUAUGAUAUCGUUCUUUCUUGUAUUCGGUUUCUUUCUCGAUAUCAUAUUAAUCUUU
B5: Ic_S2_P5E.1_K5.1_C5.1_H5.1_A5.1_[T5A]_[T6A]_[A7T]_F5.1_[T8C]_[A10T]_T5.1 (ssRNA)
RNA: UUUGAUUAAUAUGAUAUCGUUCUUUCUUGUAAAUCUUUUCUUUCUCGAUAUCAUAUUAAUCUUU
B6: Ic_S2_P5E.1_K5.1_C5.1_H5.1_A5.1_[T5C]_[T6C]_[A7T]_F5.1_[T9G]_[A10G]_T5.1 (ssRNA)
RNA: UUUGAUUAAUAUGAUAUCGUUCUUUCUUGUACCUUGGUUCUUUCUCGAUAUCAUAUUAAUCUUU
B7: Ic_S2_P5E.1_K5.1_C5.1_H5.1_A5.1_[T5C]_[T6C]_F5.1_[A10T]_T5.1 (ssRNA)
RNA: UUUGAUUAAUAUGAUAUCGUUCUUUCUUGUACCAUUUUUCUUUCUCGAUAUCAUAUUAAUCUUU
B8: Ic_S2_P5E.1_K5.1_C5.1_H5.1_A5.1_[T5A]_[T6A]_[A7T]_F5.1_[A10T]_T5.1 (ssRNA)
RNA: UUUGAUUAAUAUGAUAUCGUUCUUUCUUGUAAAUUUUUUCUUUCUCGAUAUCAUAUUAAUCUUU
B9: Ic_S2_P5E.1_K5.1_C5.1_H5.1_A5.1_[T5C]_[T6C]_F5.1_[T8C]_[T9C]_[A10C]_T5.1 (ssRNA)
RNA: UUUGAUUAAUAUGAUAUCGUUCUUUCUUGUACCACCCUUCUUUCUCGAUAUCAUAUUAAUCUUU
B10: Ic_S2_P5E.1_K5.1_C5.1_H5.1_A5.1_[T5C]_[T6G]_[A7C]_F5.1_[T8C]_[T9C]_[A10C]_T5.1 (ssRNA)
RNA: UUUGAUUAAUAUGAUAUCGUUCUUUCUUGUACGCCCCUUCUUUCUCGAUAUCAUAUUAAUCUUU
B11: Ic_S2_P5E.1_K5.1_C5.1_H5.1_A5.1_[T6G]_[A7C]_F5.1_[T8C]_[T9C]_[A10T]_T5.1 (ssRNA)
RNA: UUUGAUUAAUAUGAUAUCGUUCUUUCUUGUAUGCCCUUUCUUUCUCGAUAUCAUAUUAAUCUUU
B12: Ic_S2_P5E.1_K5.1_C5.1_H5.1_A5.1_[T5A]_[A7C]_F5.1_[T9C]_[A10T]_T5.1 (ssRNA)
RNA: UUUGAUUAAUAUGAUAUCGUUCUUUCUUGUAAUCUCUUUCUUUCUCGAUAUCAUAUUAAUCUUU
B13: Ic_S2_P5E.1_K5.1_C5.1_H5.1_A5.1_[T5A]_[A7G]_F5.1_[T8G]_T5.1 (ssRNA)
RNA: UUUGAUUAAUAUGAUAUCGUUCUUUCUUGUAAUGGUAUUCUUUCUCGAUAUCAUAUUAAUCUUU
B14: Ic_S2_P5E.1_K5.1_C5.1_H5.1_A5.1_[T5G]_[T6C]_F5.1_[T9C]_T5.1 (ssRNA)
RNA: UUUGAUUAAUAUGAUAUCGUUCUUUCUUGUAGCAUCAUUCUUUCUCGAUAUCAUAUUAAUCUUU
B15: Ic_S2_P5E.1_K5.1_C5.1_H5.1_A5.1_[T6A]_[A7C]_F5.1_[T9A]_[A10G]_T5.1 (ssRNA)
RNA: UUUGAUUAAUAUGAUAUCGUUCUUUCUUGUAUACUAGUUCUUUCUCGAUAUCAUAUUAAUCUUU
B16: Ic_S2_P5E.1_K5.1_C5.1_H5.1_A5.1_[T5A]_[T6C]_[A7C]_F5.1_[T9C]_[A10G]_T5.1 (ssRNA)
RNA: UUUGAUUAAUAUGAUAUCGUUCUUUCUUGUAACCUCGUUCUUUCUCGAUAUCAUAUUAAUCUUU
B17: Ic_S2_P5E.1_K5.1_C5.1_H5.1_A5.1_[T5C]_[T6C]_F5.1_[T8G]_[T9C]_[A10T]_T5.1 (ssRNA)
RNA: UUUGAUUAAUAUGAUAUCGUUCUUUCUUGUACCAGCUUUCUUUCUCGAUAUCAUAUUAAUCUUU
B18: Ic_S2_P5E.1_K5.1_C5.1_H5.1_A5.1_[T5A]_[T6C]_[A7C]_F5.1_[T8C]_[T9A]_T5.1 (ssRNA)
RNA: UUUGAUUAAUAUGAUAUCGUUCUUUCUUGUAACCCAAUUCUUUCUCGAUAUCAUAUUAAUCUUU
B19: Ic_S2_P5E.1_K5.1_C5.1_H5.1_A5.1_[T5A]_[T6A]_[A7T]_F5.1_[T8A]_[T9A]_[A10C]_T5.1 (ssRNA)
RNA: UUUGAUUAAUAUGAUAUCGUUCUUUCUUGUAAAUAACUUCUUUCUCGAUAUCAUAUUAAUCUUU
B20: Ic_S2_P5E.1_K5.1_C5.1_H5.1_A5.1_[T5C]_[T6C]_F5.1_[T8G]_[A10C]_T5.1 (ssRNA)
RNA: UUUGAUUAAUAUGAUAUCGUUCUUUCUUGUACCAGUCUUCUUUCUCGAUAUCAUAUUAAUCUUU
B21: Ic_S2_P5E.1_K5.1_C5.1_H5.1_A5.1_[T5G]_[T6C]_[A7T]_F5.1_[T8A]_[A10T]_T5.1 (ssRNA)
RNA: UUUGAUUAAUAUGAUAUCGUUCUUUCUUGUAGCUAUUUUCUUUCUCGAUAUCAUAUUAAUCUUU

These binders were tested against T1, PUF4 RNA-binding domain (assay: Mg; RNA-MaP; 20 mM Na-HEPES pH 7.4, 30 mM KOAc, 0.75 mM MgCl2, 0.1% Tween-20, 5% glycerol, 0.1 mg/mL BSA, 2 mM DTT; 25 C; 0.0125-409.6 nM protein). Conditions: tags: N-His6-TEV cleaved; C-SNAP kept, Cy3B-labelled; label: tethered on chip by stalled RNA polymerase.

UCUCUUCGUAUAUUGUCUCUU (ssRNA) [Ib_S1_P4E.1_K4.1_C4.1_H4.1_[T1C]_A4.1_F4.1_[A9G]_T4.1] and UCUCUUUGUUUAUAAUCUCUU (ssRNA) [Ib_S1_P4E.1_K4.1_C4.1_H4.1_[A4T]_A4.1_F4.1_[T8A]_T4.1] are within 1.5-fold of each other in Kd: 663 nM for the first, 495 nM for the second.

Going from B1 to B2, the Kd falls from 6.33 nM to 2.45 nM (2.6-fold).

Compared with B3, B4 is lower in Kd: over 2300 nM for the first, 475 nM for the second. The second binds more tightly here.

First: B5
Second: B6
The Kd of the first is 2.8-fold lower: 76.2 nM for the first, 210 nM for the second. The first binds more tightly here.

Compared with B7, B8 is 8-fold higher in Kd: 2.17 nM for the first, 17.4 nM for the second. The first binds more tightly here.

First: B9
Second: B10
The Kd of the first is 2.5-fold higher: 347 nM for the first, 140 nM for the second.

First: B11
Second: B12
The Kd of the first is 16-fold higher: 582 nM for the first, 36.5 nM for the second.

First: B13
Second: B14
The Kd of the first is 1.8-fold lower: 48.9 nM for the first, 87.8 nM for the second.

Compared with B15, B16 is 400-fold higher in Kd: 1.41 nM for the first, 563 nM for the second. The first binds more tightly here.

Compared with B17, B18 is higher in Kd: 496 nM for the first, over 2300 nM for the second. The first binds more tightly here.

Compared with B19, B20 is 6.3-fold higher in Kd: 30.3 nM for the first, 192 nM for the second. The first binds more tightly here.

Work on B21 yielded a Kd of 43.1 nM.
